We go through two substances from patent publication EP4707393A1, “DOUBLE-STRANDED SIRNA, CONJUGATE THEREOF AND USE THEREOF” (CMS Research & Development Pte. Ltd., priority 2023, dated 2024).

A short description of data set [1]: Melting temperature (Tm) by UV absorption at 260 nm. The data set is classed as physicochemical. As to conditions: phosphate buffer solution; average of at least two independent measurements. As for the experimental part: The Tm value was determined by recording the change in UV absorption at 260 nm of DNA/RNA in phosphate buffer solution as the temperature increased.
Table 6 Melting temperature (Tm) test instrument parameters
The melting temperature (Tm) was calculated from the first derivative of the smoothed heating curve, and the reported value was the average of at least two independent measurements. Table 7 Melting temperatures (Tm) of conjugates of the present disclosure

For data set [2], the system named is hPBMCs. Briefly: Immunogenicity test in hPBMCs (IL-6 and TNF-α ELISA of supernatant). The data set is classed as cell-based, human. As to conditions: 18-20 h. The gist of the method: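 siRNA conjugates, three-fold serially diluted in water then 10-fold in 1640 medium (5.0% water final), were added in duplicate to PBMCs at 1.6 × 10^6/mL and incubated 18-20 h at 37 °C. TNF-α and IL-6 in supernatant were measured by ELISA; LPS served as positive control.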
(ELISA stands for enzyme-linked immunosorbent assay.)

Data set [3] has as its system PHH cells. Briefly: Off-target assessment by RNA-sequencing in PHH cells. The data set is classed as cell-based. As to conditions: vs PBS, 48 hours; for Downregulated differential genes / Total differential genes / Upregulated differential genes: DESeq2 padj ≤ 0.05 |log2FoldChange| ≥ 1.0. As for the experimental part:
• 1.1 Double-stranded siRNA conjugates • 1.2 PHH cells, purchased from Research Institute for Liver Diseases(Shanghai)Co. Ltd. • 1.3 Main reagents: InvitroGRO CP Medium (Cat. No.: BIOIVT-S03316), Fetal Bovine Serum (Cat. No.: ExCellBio-FSP500), Penicillin-Streptomycin (Cat. No.: Hyclone-SV30010), TRLzol Reagent (Cat. No.: Ambion-15596018).
The cryopreserved PHH was taken from the liquid nitrogen and thawed in a water bath at 37 °C. The fully thawed PHH was transferred to a 10% FBS InvitrogRO CP medium and blended well, and counted using a counter. The cell density was adjusted to 6 × 10^5 cells/mL.
siRNAs were diluted with RNase-free PBS to 10 times the final concentration (for example, diluted to 1000 nM if the test concentration is 100 nM). The diluted siRNAs were then added to a collagen-coated 12-well plate at 100 µL/well, with 1 concentration point, 3 replicated wells, and blank PBS as the negative control group. PHH cells at a density of 6 × 10^5 cells/mL were added to the collagen-coated 12-well plate at 900 µL/well. The final concentrations of the test compounds were […]. The cell plates were incubated in a 5% CO2, 37 ° C incubator for 48 hours. After 48 hours, the medium was removed, 600µL of Trizol was added per well to lyse the cells, and sent to Beijing Novogene Co., Ltd. for RNA-sequencing.
NEB Standard Library Preparation: Fragmented mRNAs were used as a template and random oligonucleotides as primers. The first strand of cDNA was synthesized in an M-MuLV reverse transcriptase system. The RNA strand was then degraded with RNaseH, and the second strand of cDNA was synthesized using a DNA polymerase I system with dNTPs as raw materials. The purified double-stranded cDNA underwent end repair, A-tailing, and adapter ligation for sequencing. The cDNA of approximately 250-300 bp was screened out by AMPure XP beads, PCR amplified, and the PCR product was purified again by AMPure XP beads to finally obtain the library. The kit used for library construction was NEBNext® Ultra ™ RNA Library Prep Kit for Illumina.
After the library construction, quantification was primarily performed using a Qubit2.0 Fluorometer, and the library was diluted to 1.5 ng/µL. The insert size of the library was then detected using an Agilent 2100 bioanalyzer. If the insert size meets expectations, the effective concentration of the library was accurately quantified by qRT-PCR (an effective concentration of the library higher than 2nM) to ensure the quality of the library.
After passing quality control of the library, different libraries were pooled according to the effective concentration and target output data volume for Illumina sequencing. The basic principle of sequencing is Sequencing by Synthesis. Four fluorescently labeled dNTPs, DNA polymerase, and adapter primers were added to the sequencing flow cell for amplification. As each sequencing cluster extends the complementary strand, the incorporation of each fluorescently labeled dNTP can release the corresponding fluorescence. The sequencer captures the fluorescence signal and converts the optical signals into sequencing peaks through computer software, thereby obtaining the sequence information of the test fragments.
Experimental results were obtained through software analysis
Differential gene analysis takes DESeq2 padj ≤ 0.05 |log2FoldChange| ≥ 1.0 as the threshold. Table 8. Differential gene statistics

For the substance “Z46: siRNA conjugate: sense SEQ ID NO:43, ligand D01 at 3' end of sense strand, antisense SEQ ID NO:66 (sense CAGCCCCTTATTGTTANACGA; antisense TCTCGTATNACAATAAGGGGCTG; ligand D01 at sense 3' end; listed as RNA; modified_base 1: mod_base = OTHER; note = 2'-O-methylcytidine; modified_base 2: mod_base = OTHER; note = 2'-O-methyladenosine; modified_base 3: mod_base = OTHER; note = 2'-O-methylguanosine; modified_base 4..7: mod_base = OTHER; note = 2'-O-me; note = 2'-O-methyluridine; modified_base 4: mod_base = OTHER; note = 2'-fluorocytidine; modified_base 5: mod_base = OTHER; note = 2'-O-methylg)”, in data set [1], the “Melting temperature Tm” value worked out at 76.75 °C. Also, in data set [2] (donor 2 hPBMCs, 5 µg/mL), the IL-6 stood at 15.0 pg/mL and the TNF alpha worked out at 8.1 pg/mL. In data set [2] (donor 2 hPBMCs, 15 µg/mL), this substance yielded an IL-6 of 88.8 pg/mL and a TNF alpha of 22.8 pg/mL. In data set [2] (donor 2 hPBMCs, 45 µg/mL), this substance had an IL-6 of 9.3 pg/mL and a TNF alpha of 10.2 pg/mL. In data set [3], the Downregulated differential genes is 0, the Total differential genes is reported as 0 and the Upregulated differential genes is given as 0.

In the case of “Z42: siRNA conjugate: sense SEQ ID NO:49, ligand D01 at 3' end of sense strand, antisense SEQ ID NO:80 (sense CAGCCCCTTATTGTTATACGA; antisense NCGTATNACAATAAGGGGCNGTT; ligand D01 at sense 3' end; listed as RNA; modified_base 1: mod_base = OTHER; note = 2'-O-methylcytidine; modified_base 2: mod_base = OTHER; note = 2'-O-methyladenosine; modified_base 3: mod_base = OTHER; note = 2'-O-methylguanosine; modified_base 4..7: mod_base = OTHER; note = 2'-O-me; note = n is B33; note = 2'-deoxycytidine; modified_base 4: mod_base = OTHER; note = 2'-O-methyluridine; m)”, in data set [1], the “Melting temperature Tm” value was determined as 67.75 °C. Besides, in data set [2] (donor 1 hPBMCs, 5 µg/mL), the IL-6 is 1298.3 pg/mL and the TNF alpha is listed as 35.8 pg/mL. In data set [2] (donor 1 hPBMCs, 15 µg/mL), this substance registered an IL-6 of 1406.8 pg/mL and a TNF alpha of 34.8 pg/mL. In data set [2] (donor 1 hPBMCs, 45 µg/mL), this substance gave an IL-6 of 1457.0 pg/mL and a TNF alpha of 39.4 pg/mL. In data set [3], this substance showed a Maximum up-regulation folds of 1.9, a Downregulated differential genes of 0, a Total differential genes of 4 and an Upregulated differential genes of 4.
